Patent US7341836B2, “Modified cyclic nucleotide gated ion channels” (The Regents of the University of Colorado, priority 2001, dated 2008)
“Also recorded” adds a separate entry of the source.

T1: rat olfactory CNG channel α subunit (Rattus norvegicus, UniProt Q00195, C460W/E583M)
T1 construct: expressed in transfected cells; host or cells: HEK-293 (adenovirus infection)
T1 sequence (Q00195 1-664 C460W/E583M): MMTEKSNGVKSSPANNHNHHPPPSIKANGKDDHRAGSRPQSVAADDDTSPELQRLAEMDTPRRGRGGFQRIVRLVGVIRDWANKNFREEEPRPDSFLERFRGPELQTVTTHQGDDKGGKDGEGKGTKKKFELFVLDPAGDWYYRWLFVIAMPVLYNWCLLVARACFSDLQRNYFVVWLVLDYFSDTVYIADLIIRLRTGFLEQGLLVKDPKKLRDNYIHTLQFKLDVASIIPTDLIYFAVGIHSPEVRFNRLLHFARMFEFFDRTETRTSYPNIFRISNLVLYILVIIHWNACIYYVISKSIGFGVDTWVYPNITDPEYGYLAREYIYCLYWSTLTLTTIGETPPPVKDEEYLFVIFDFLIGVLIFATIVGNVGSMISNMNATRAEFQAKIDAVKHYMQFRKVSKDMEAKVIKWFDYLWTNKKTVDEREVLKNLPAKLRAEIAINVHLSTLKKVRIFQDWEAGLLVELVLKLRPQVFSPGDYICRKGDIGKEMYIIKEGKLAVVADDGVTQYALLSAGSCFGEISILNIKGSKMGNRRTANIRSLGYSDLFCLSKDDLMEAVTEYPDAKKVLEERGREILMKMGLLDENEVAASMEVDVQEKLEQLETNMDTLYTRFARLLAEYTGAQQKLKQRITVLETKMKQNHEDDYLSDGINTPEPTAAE


Key:
[1] = tested on: rat olfactory CNG channel α subunit; test: Excised inside-out patch recordings, cyclic nucleotide dose-response of CNG channel constructs; type: biochemical; conditions: for Imax^cGMP/Imax^cAMP: current at saturating cGMP divided by current at saturating cAMP
Method: (§1) As described in greater detail herein, the effects of modifications to CNG channels were assessed using the Hill equation, I/Imax=[cNMP]^N/([cNMP]^N+K1/2^N), where I/Imax is the fraction of maximal current, cNMP represents cyclic nucleotide, K1/2 is the concentration that gives half-maximal current, and N is the Hill coefficient, an index of cooperativity. I/Imax^cGMP/Imax^cAMP is the current induced by saturating cGMP divided by the current induced by saturating cAMP. Data (mean±standard deviation of three experiments) were obtained from excised membrane patches using standard patch clamp techniques.
(§2) To assess the cyclic nucleotide sensitivity of different CNG channel constructs, excised, inside-out patch recordings were made at room temperature (20-21° C.) using an Axopatch-200A patch clamp amplifier (Axon Instruments Inc.). Pipettes were pulled from borosilicate glass and heat polished. Pipettes were lowered onto the cells and gigaohm seals were formed. Patches were excised by shearing cells from the pipette with a jet of liquid. Ionic currents were elicited by 250 ms pulses to membrane potentials of +50 and −50 mV from a holding potential of 0 mV. Current records were sampled at five times the filter setting and stored on an IBM compatible computer. Records were corrected for errors due to series resistance (pipette resistance was 4.1 ±0.1 MΩ). Both the pipette and bath solutions contained (mM): 130 NaCl, 2 HEPES, 0.02 EDTA, and 1 EGTA, pH 7.6. Cyclic nucleotide-induced currents were obtained from the difference between currents in the presence and absence of cyclic nucleotides. Dose response curves for cAMP and cGMP were obtained at +50 and −50 mV in the same patch. The effects of the modifications were assessed using the Hill equation, I/Imax=[cNMP]^N/([cNMP]^N+K1/2^N), where I/Imax is the fraction of maximal current, cNMP represents cyclic nucleotide, K1/2 is the concentration that gives half-maximal current, and N is the Hill coefficient, an index of cooperativity. K1/2 and N for cAMP were 36±5 μM, 10±2 μM, 1.0±0.3 μM, and […] for WT, E583M, C460/E583M, and Δ61-90/C460W/E583M channels, respectively (See, Rich et al., J. Gen. Physiol. [2001], supra).
(§3) The cyclic nucleotide sensitivity of the C460W/E583M CNG channel was assessed in excised, inside-out patches as known in the art (See, Rich et al. [2001], supra). K1/2 and N were 1.1±0.3 μM and 2.1±0.4 at +50 mV; and 1.0±0.3 μM and 2.0 ±0.3 at −50 mV (n=11). With these values, the cAMP concentration could be calculated from currents measured in perforated patch experiments (Rich et al. Proc. Natl. Acad. Sci. [2001], supra).

[2] = tested on: HEK-293 cells expressing C460W/E583M channels; test: PGE1-induced cAMP responses in cell populations (Ca2+ influx through C460W/E583M channels); type: cell-based, human; conditions: 100 nM PGE1
Source text: In this Example, experiments conducted to detect cAMP levels in cells are described. Changes in cyclic AMP concentrations in response to PGE1 stimulation were monitored in HEK-293 cells by measuring Ca^2+ influx through C460W/E583M CNG channels (See, Rich et al. [2001], supra). HEK-293 cells express a variety of extracellular receptors including prostanoid receptors (Thomas and Hoffman, Mol. Pharmacol., 49:907-914 [1996]), and the cAMP-specific PDE type IV (Rich et al. [2001], supra; and Hoffmann et al., EMBO J., 18:893-903 [1999]). Based on PCR analysis, these cells also appear to express AC types II, […], VI, and VII, (Hellevuo et al., Biochem. Biophys. Res. Commun., 192:311-318 [1993]). C460W/E583M channels were expressed heterologously using an adenovirus construct (See, Rich et al. [2001], supra). The Ca^2+ permeability of the channel was used to detect changes in local cAMP concentration; the fluorescent indicator fura-2 was used to monitor Ca^2+ entry. With this approach, incremental changes in cAMP concentration are readily detected as changes in relative Ca^2+ influx rates through C460W/E583M channels (See, Rich et al., [2001], supra).
Transient responses were observed over a large range of PGE1 concentrations, from 0.01 to 10 μM (FIG. 17, Panel A). […] The decline was unlikely to result primarily from a reduction in AC activity (e.g., receptor desensitization), because of the sustained accumulation of total cellular cAMP in the presence of IBMX (See, FIG. 16, Panel B). To verify this, 100 μM IBMX was added at various times after PGE1 application.
To test whether PGE1 did indeed increase the total PDE activity, 100 nM PGE1 were added at various times after the initial application of 100 nM PGE1 (a subsaturating concentration). There was a negligible response to the subsequent addition of PGE1, even after 50 min (FIG. 17, Panel D). Taken together, the results of the experiments shown in FIG. 17, Panels C and D argue that the cAMP transient is due to an initial increase in AC activity, followed by a more profound increase in PDE activity. […] As indicated herein, these processes are crucial for the generation of spatially and temporally distinct cAMP signals.

[3] = tested on: HEK-293 cells expressing C460W/E583M channels; test: Single-cell local cAMP measurement, perforated patch or whole cell currents through C460W/E583M channels; type: cell-based, human; conditions: 1 μM PGE1
Method: Single-cell cAMP measurements were made using either the perforated patch or whole cell patch clamp technique (Rich et al. [2000], supra). In the perforated patch configuration, the pore forming antibiotic nystatin was added to the pipette solution to gain electrical access to the cell's interior while retaining divalent cations and larger molecules like cAMP in the cell. Recordings were made using an Axopatch-200A patch clamp amplifier (Axon Instruments). Pipette resistance was limited to 5 ΩM and averaged 3.4±0.5 ΩM (measurements provided herein are expressed as mean±standard deviation). In the perforated patch configuration, a steady access resistance was obtained 5-15 minutes following seal formation. […] These quantities were monitored throughout the experiments to ensure stable electrical access was maintained. […] The time to exchange the extracellular solution was measured by applying a 140 mM KCl solution to a depolarized cell (+50 mV), and monitoring changes in current through endogenous voltage-gated K^+ channels; for each experiment, it was less than 60 ms. […] In most of these experiments, the pipette solution also contained 1 mM cAMP; at the end of the experiment the maximal cAMP-induced current could be measured by rupturing the cell membrane at the tip of the pipette with suction, allowing saturating cAMP to diffuse to the channels (See, Rich et al. [2000], supra). […]

[4] = molecular target: T1, rat olfactory CNG channel α subunit; test: Excised inside-out patch recordings, cyclic nucleotide dose-response of CNG channel constructs; type: biochemical; conditions: for N: Hill coefficient, n=11, Example 9
Method: as §1, §2, §3

[5] = tested on: HEK-293 cells expressing CNG channels; test: Forskolin-induced cAMP accumulation monitored by Ca2+ influx (fura-2) through expressed CNG channels; type: cell-based, human; conditions: 100 μM IBMX; forskolin 0-50 μM
Method: Next, experiments were conducted to assess the ability of each channel construct to detect increases in local cAMP concentration. Changes in cAMP concentration were detected using fura-2 to monitor Ca^2+ influx through CNG channels, as described in the Examples. Ca^2+ influx induced by different concentrations of forskolin, an AC activator, in the presence of 100 μM IBMX, a nonselective PDE inhibitor was measured. This approach allowed comparisons to be made between the cAMP sensitivities of the different channels to changes in cAMP, regardless of variations in expression levels between experiments. In HEK-293 cells expressing the WT channel, addition of forskolin was followed by a brief delay and an increase in Ca^2+ influx (See, FIG. 7, Panel A). The delay decreased and the rate of Ca^2+ influx increased in a dose-dependent manner. Neither effect was saturated at 50 μM forskolin. In cells expressing the E583M channel, addition of forskolin was also followed by a brief delay and an increase in Ca^2+ influx (FIG. 7, Panel B). As with the WT channel, the delay and the initial rate of Ca^2+ influx were dose-dependent. […] In cells expressing the Δ61-90/C460W/E583M channel, addition of forskolin caused similar increases in Ca^2+ influx as the E583M channel, including saturation of the delay and rate of influx at 20 μM (compare FIG. 7, Panel B with FIG. 7, Panel D). The increased response of the modified channels to forskolin treatment is consistent with the apparent cAMP affinities measured in excised patches in the absence of Ca^2+-CaM (C460W/E583M>E583M˜Δ61-90/C460W/E583>WT channels). There are several factors that may have contributed to the apparent lack of a Ca^2+-CaM effect on the channels.
Briefly, HEK-293 were maintained in MEM (Life Technologies Inc.) supplemented with 26.2 mM NaHCO3, 10% (v/v) fetal bovine serum (Gemini), penicillin (50 μg/mL), and streptomycin ([…]), pH 7.0, at 37° C. in a humidified atmosphere of 95% air and 5% CO2. Cells were plated at ˜60% confluence in 100 mm culture dishes twenty-four hours prior to infection with the CNG-channel-encoding adenovirus constructs (multiplicity of infection=10 plaque forming units per cell). […] Twenty-four hours post-infection cells were detached with phosphate-buffered saline containing 0.03% EDTA, resuspended in serum-containing medium, and assayed within 12 hours.

Molecule | effect on CNG channel activity in excised membrane patches ([1]; 100 μM IBMX, 1 μM PGE1) | slopes of the initial PGE1-induced responses [2] [s⁻¹] | average amplitude of the cAMP signal ([3]; five cells) [µM] | width at half height of the cAMP response ([3]; perforated patch, −20 mV, six cells) [s] | Imax^cGMP/Imax^cAMP ([1]; +50 mV) | Imax^cGMP/Imax^cAMP ([1]; −50 mV) | lower K1/2 for cAMP than the E583M channel [4] [fold] | N ([4]; +50 mV) | N ([4]; −50 mV) | forskolin concentration at which delay and rate of Ca2+ influx saturated [5] [µM]
CCCCC[C@H](O)/C=C/[C@H]1[C@H](O)CC(=O)[C@@H]1CCCCCCC(=O)O [PGE1, prostaglandin E1] | no direct effect on channels; also recorded: no change in current was observed | 0.0038 ± 0.0003 | 0.7 ± 0.4 | 87 ± 53 |  |  |  |  |  | 
C460W/E583M: modified rat olfactory cyclic nucleotide-gated ion channel containing the C460W/E583M mutation, SEQ ID NO:6 (protein, listed as Rattus norvegicus) MMTEKSNGVKSSPANNHNHHPPPSIKANGKDDHRAGSRPQSVAADDDTSPELQRLAEMDTPRRGRGGFQRIVRLVGVIRDWANKNFREEEPRPDSFLERFRGPELQTVTTHQGDDKGGKDGEGKGTKKKFELFVLDPAGDWYYRWLFVIAMPVLYNWCLLVARACFSDLQRNYFVVWLVLDYFSDTVYIADLIIRLRTGFLEQGLLVKDPKKLRDNYIHTLQFKLDVASIIPTDLIYFAVGIHSPEVRFNRLLHFARMFEFFDRTETRTSYPNIFRISNLVLYILVIIHWNACIYYVISKSIGFGVDTWVYPNITDPEYGYLAREYIYCLYWSTLTLTTIGETPPPVKDEEYLFVIFDFLIGVLIFATIVGNVGSMISNMNATRAEFQAKIDAVKHYMQFRKVSKDMEAKVIKWFDYLWTNKKTVDEREVLKNLPAKLRAEIAINVHLSTLKKVRIFQDWEAGLLVELVLKLRPQVFSPGDYICRKGDIGKEMYIIKEGKLAVVADDGVTQYALLSAGSCFGEISILNIKGSKMGNRRTANIRSLGYSDLFCLSKDDLMEAVTEYPDAKKVLEERGREILMKMGLLDENEVAASMEVDVQEKLEQLETNMDTLYTRFARLLAEYTGAQQKLKQRITVLETKMKQNHEDDYLSDGINTPEPTAAE |  |  |  |  | 0.84 ± 0.10 | 0.50 ± 0.10 | ~10 | 2.1±0.4 | 2.0 ±0.3 | 5
